Data reported in article PMC2173783.
Read-outs that look alike come from different tables or passages of the source.

Legend:
[1] = molecular target: bt-SR (bt-SRβ + SRα) (canine); assay: IAsys optical biosensor
[2] = molecular target: bt-SR (bt-SRβ + SRα) (canine); assay: IAsys optical biosensor; remark: listed apart in the source
[3] = molecular target: bt-SR (bt-SRβ + SRα) (canine); assay: IAsys optical biosensor; remark: listed apart in the source
[4] = molecular target: Sec61 complex; assay: radioligand binding
[5] = molecular target: SRP receptor purified from canine pancreas (canine) (UniProt P06625); assay: radioligand binding

| koff [1] [s⁻¹] | kon [1] [M⁻¹ s⁻¹] | koff [2] [s⁻¹] | Kd [3] [nM] | Kd [1] [nM] | Kd [4] [nM] | Kd [5] [nM] | stoichiometry N [5] | Substance |
| --- | --- | --- | --- | --- | --- | --- | --- | --- |
| 0.0069 | 48000 | 0.0065 | – | – | – | – | – | signal recognition particle (from UniProt P61010 1-504) (complex) |
| – | – | – | 1.9 | 0.9 | 5.4 | 0.87 | 1 | 80S ribosomes (complex) |
